# Data as given in the RNAGym collection of RNA variant scans (doi:10.1073/pnas.2313332121).
# This sample holds only a part of the variants without activity.
# B1: TPR 5TU (parent)
# chain: GGAUCUUCUCGAUCUAACAAAAAAGACAAAUCUGCCACAAAGCUUGAGAGCAUCUUCGGAUGCAGAGGCGGCAGCCUUCGGUGGCGCGAUAGCGCCAACGUUCUCAACUAUGACACGCAAAACGCGUGCUCCGUUGAAUGGAGUUUAUCAUG
# Variants of: B1
# Experiment: polymerase ribozyme fitness, log enrichment relative to wild type (log ratio); higher = more active; in vitro selection for triplet polymerase activity
# Outline: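 Input and output libraries were sequenced on Illumina after a single in vitro selection round, run in triplicate on PCR-built, transcribed mutant libraries of each subunit of a heterodimeric triplet polymerase ribozyme. Selection annealed libraries to a biotinylated primer, the partner subunit and triplets, incubated them frozen at −7 °C, then gel-excised extended constructs for streptavidin-bead capture and RT-PCR. Genotypes with ≥10 input reads and ≥1 read per output were kept. Fitness is the logarithm, taken in base 2, of genotype enrichment divided by wild-type enrichment, using inverse-variance-weighted replicate averages.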
row,Variant,polymerase ribozyme fitness (log ratio)
1,A26U A49U G59U,≤ -4.2
2,A26U C93U,-2.67
3,G25U A30C A47C C99G U101G C105A,≤ -4.2
4,A26U A28U C32A A52U A73U A91U G92A A113G U148A G152U,≤ -4.2
5,G25U A89U C96G G100A U102C C118A A119G,≤ -4.2
6,A26C A47C A52C G58C G71A G100C C116A,≤ -4.2
7,A26G C36U G65C A91G U111G C149A,≤ -4.2
8,A26U C75U,-3.23
9,A26C A107G,≤ -4.2
10,A26C C85U,-1.86
11,A26U C96U C108G U127A,≤ -4.2
12,G25C C76U C79G C93A C118U,≤ -4.2
13,G25U C35A A41G C54U C87U C95U,-3.99
14,A26G U77A C87U A89C,≤ -4.2
15,G25C U31C C32G U55A C75G C76U C79A A115G A120C C129A,≤ -4.2
16,G25C A41C A52G G86A C96A,≤ -4.2
17,G25U A39U U55A U102C U109G C114U A120U A122G U144G,≤ -4.2
18,A26C G100U,-4
19,A26C C27G C51G G83C A89C A138G A142U,≤ -4.2
20,A26C G42A G46C A49G A52C C54U A91U C99U U109G C132U G140U,≤ -4.2
21,A26C C43U A52G G71C A97G,≤ -4.2
22,A26C C35U U44A C57U G58U C85A,≤ -4.2
23,G25U A52C U90C C95U U111A U135A U151G,≤ -4.2
24,G25C C85U A89U U135G,≤ -4.2

row,Variant,polymerase ribozyme fitness (log ratio)
1,A26C C76U G81U G86A U144C,-3.81
2,G25A C38U C85G,-4.07
3,G25C C54A C105U,-3.21
4,A26C A49C,≤ -4.2
5,A26C A52U A89C,-3.85
6,G25C U56G G84A A89G U130C,-2.97
7,G25U C35U A49U G68A G81A U109G C118U G126C,≤ -4.2
8,G25C A64C C96U,≤ -4.2
9,G25U A39U U53A C76G U145A,≤ -4.2
10,A26C A41C C57G,-3.4
11,G25A G34C U44A G84A G88A,≤ -4.2
12,G25U G84A C131U G136A U144G,-1.89
13,G25C C87A G100U,≤ -4.2
14,A26U G42C C93G A115U,≤ -4.2
15,A26C C57G G80A,-4.09
16,G25C U31A C96G,-1.31
17,A26U A49U C87A U134G,≤ -4.2
18,A26C A47C U77C U102C G117C,≤ -4.2
19,A24U U56C G62A A64G G68C G83A G124U U146A,≤ -4.2
20,A26G G92U,-3.31
21,G25C C75A U104A A119U U134G U135A,≤ -4.2
22,A26C A52C U53A,≤ -4.2
23,G25C C35U G74C C75A U148G,≤ -4.2
24,G25U G46C G50C A66G U90C G100C U104A U146C G152A,≤ -4.2

row,Variant,polymerase ribozyme fitness (log ratio)
1,A26U C96U A142C,-3.03
2,A26U A49G C95U,-3.28
3,A26U C51U C114U C129U,≤ -4.2
4,G25A G34U C35G C85G,-4.2
5,A26U C54A U56G C75A C93A U134A,≤ -4.2
6,G25C C79A G84U A97C,≤ -4.2
7,A26C U78C G88A C108G C114G C149G,≤ -4.2
8,A26G C32U U33G A49U A91U,≤ -4.2
9,G25A G48U U61G C96A A97G C132G,≤ -4.2
10,A26G A49G C57U G59A C72A,≤ -4.2
11,A26C G84C C108G G133U,≤ -4.2
12,A26C G84C C108G G133A,≤ -4.2
13,A24U U55G,0.467
14,A24U U55A,-0.466
15,A26C C32G C54U C87G C95U,-3.91
16,G25A U55A U135A,-3.79
17,A26C A64G G83U C85G A115G,≤ -4.2
18,A26G A30C A39C A47U C76U C93U A97G G133A G140U G141A,-4.02
19,A24U U82G G83C,-1.55
20,A26U C43A A49G G58C C93U G112A,≤ -4.2
21,G25C A26U C87G A121U C129G U151A,≤ -4.2
22,A26C G81A C87U G88C G124C G136U G140C,≤ -4.2
23,G25U G83A C95A A138U U139C,≤ -4.2
24,A26U A49U G68U C72U G84A G86U G112A A122G,≤ -4.2

row,Variant,polymerase ribozyme fitness (log ratio)
1,G25A C32A A40C C123A G124A A138C,≤ -4.2
2,A26C G83C,-2.82
3,A26U A49G C93U G124C U135G A138G,≤ -4.2
4,G25U C69G G83U C95U,-3
5,G25C G46A U144C,-4.12
6,A26G C32A A39C C54A A150G,≤ -4.2
7,A26C C36A U44G U55A G140C,-4.19
8,G25A A37G C54A C87G,≤ -4.2
9,G25C C54A C76U G88A,≤ -4.2
10,G25U G46C G50A G62A C96U,≤ -4.2
11,G25C A66G A106C,≤ -4.2
12,A26U A39C A49G G128A A138G,≤ -4.2
13,A26U A37C A47G C85U U90A U145A U146C,≤ -4.2
14,G25C G83C C87G A91G,≤ -4.2
15,A26G U55A,-2.03
16,A26U C35U A47C C54G A64G A66U C93A A142G,≤ -4.2
17,G25C A52C U56A C85U G124C,≤ -4.2
18,G25U C69G U146A,-4.05
19,A26G G59A A89C C105U,≤ -4.2
20,G25U A49C G68U G84A C87G A89U G94C C114A U148G,≤ -4.2
21,A26G A39G C85U,≤ -4.2
22,G25U G86A C105U,-3.5
23,G25U G71C U145G,≤ -4.2
24,A26U C118A,-2.33

row,Variant,polymerase ribozyme fitness (log ratio)
1,A26U C118U,-0.616
2,A26U C51A C54A C57U U90C C93G,≤ -4.2
3,A26C A73G C105U U146G,-3.66
4,G25U C76U G94C A120G,-2.88
5,A26U C36G U55A G58C C105U,≤ -4.2
6,A26U C35U G42C C108A A115C G133U U135A A142G U146C A147G,≤ -4.2
7,G25U C85U C116G A120U G141C,≤ -4.2
8,G25C A52C G58C G59C A138U,≤ -4.2
9,A26C A30U C79U,≤ -4.2
10,A26C U44A U55G G86A G88C,≤ -4.2
11,A26G A28G C87A C105G C108U C125A,≤ -4.2
12,G25C C38A G50C G92C U130G,≤ -4.2
13,G25A U33A G83C A91U G94A A121U C131U,≤ -4.2
14,A26C C79A C87A U134C A150U,≤ -4.2
15,G25C G68C C93A C99G C114U,≤ -4.2
16,A26C A29C G65A C87G A97G A142G,≤ -4.2
17,G25C C57A C87U A97G,-3.23
18,A24U U53A U56G C57U A91U,≤ -4.2
19,G25U G42A C87G,≤ -4.2
20,A26C C38G G68C C76U G84U U139G,≤ -4.2
21,G25C U53A U61A C95G,-4.18
22,G25U C69A U82G A89G C125U C149U,≤ -4.2
23,G25U C85G C132G,≤ -4.2
24,G25U A29U C43A A64U C93U C131U,≤ -4.2

row,Variant,polymerase ribozyme fitness (log ratio)
1,A24U U135C,-2.21
2,A24U U82A C96G,0.476
3,A26C C32G C57G,≤ -4.2
4,A26U C35U C87A G124C,≤ -4.2
5,G25A U61A,-3.19
6,A26C C75U G92C,≤ -4.2
7,G25U G50C U77A C87U A107G,≤ -4.2
8,G25A U82C C105G A121U,-4.07
9,A26C C32A U53G U56A C75U U104A U111C A120G,≤ -4.2
10,A26U A39U G58A A66C C93U C149G,≤ -4.2
11,A26G U78C,-3.95
12,A26C A41G C54U C75G G88A A107G,≤ -4.2
13,A26C C96U G124A,-1.67
14,A26U A49U A137G,≤ -4.2
15,A26U A30U A37C U61A A66C G67C C69U C87A C105A C125U,≤ -4.2
16,A26U A49C U111G,≤ -4.2
17,G25C C72U A91G A119U U127A,≤ -4.2
18,A26C U53A U56A C114U,-3.79
19,A26C U56A A60U U82G,-2.45
20,A26C C51G G65A G74C G81U C93G A119U C132U G141C,≤ -4.2
21,A26U A60G C69A A97U C114U U135C,≤ -4.2
22,A26C C93G C114U,-4.19
23,G25C A150C,-3.47
24,A26U C72G G81A G86C,≤ -4.2

row,Variant,polymerase ribozyme fitness (log ratio)
1,A26U A89G,-3.26
2,G25U C38U A47U U56G U61A G65C C79G C103G U134A,≤ -4.2
3,A26U A29C A47G A49U G59C G65A G117C U139G,≤ -4.2
4,A26U C93U C118U C125A,≤ -4.2
5,A26G A89C A97C G143C,≤ -4.2
6,A26U A28C A52C G58A U139G A147C,≤ -4.2
7,A26U C85U C105U A142C,-3.69
8,A26G C99U,-3.69
9,A26C G65A C79A A89U A97C G117A,≤ -4.2
10,A26C G92C,-2.71
11,A26C A52C C69U G100A C125A,≤ -4.2
12,G25A C27G U44A G86C A97U A110C,≤ -4.2
13,A26G U53A G88U G92U C118A A147G,≤ -4.2
14,A26U G34U G59C G62A C75G C93G U104A G152A,≤ -4.2
15,A26C G92C U104C C108U A115C,≤ -4.2
16,G25C C57U C123A C125G,-2.33
17,A26U A40C G68C G71U U82A A119C C125A A150C,≤ -4.2
18,A26C G88U G92U G117U,≤ -4.2
19,G25U G59A G62C C116U U145A,-1.79
20,G25U C35G A40G A47U A91C A107G G133C,≤ -4.2
21,G25U G84U,-3.64
22,G25U U55G A122U,-3.1
23,G25U A30G A47G C51U G80C A110C,≤ -4.2
